The results in this text go back to US10500249B2, “Compositions and methods for preventing or treating diseases, conditions, or processes characterized by aberrant fibroblast proliferation and extracellular matrix deposition” (MOERAE MATRIX, INC., priority 2014, dated 2019).

What all share (assay): Kinase Profiling Assay
Holding throughout (type): biochemical
Common to all, as to settings: 100 μM

For test [1], the target named is T1, CDK7/cyclinH/MAT1 (h) (Homo sapiens, UniProt P50613).
T1 construct: purchased Millipore
The essentials:
(§1)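 Kinase inhibition by MK2 inhibitory peptides was profiled radiometrically, with substrate phosphorylation from labeled ATP read by scintillation after capture on a charged filter. Values are relative to 100% activity and measured in duplicate.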

Test [2] concerns the target MELK (h) (Homo sapiens, UniProt Q14680). In outline: as §1
Test [3] has as its target T2, TBK1 (h) (Homo sapiens, UniProt Q9UHD2).
T2 sequence (Q9UHD2 1-729): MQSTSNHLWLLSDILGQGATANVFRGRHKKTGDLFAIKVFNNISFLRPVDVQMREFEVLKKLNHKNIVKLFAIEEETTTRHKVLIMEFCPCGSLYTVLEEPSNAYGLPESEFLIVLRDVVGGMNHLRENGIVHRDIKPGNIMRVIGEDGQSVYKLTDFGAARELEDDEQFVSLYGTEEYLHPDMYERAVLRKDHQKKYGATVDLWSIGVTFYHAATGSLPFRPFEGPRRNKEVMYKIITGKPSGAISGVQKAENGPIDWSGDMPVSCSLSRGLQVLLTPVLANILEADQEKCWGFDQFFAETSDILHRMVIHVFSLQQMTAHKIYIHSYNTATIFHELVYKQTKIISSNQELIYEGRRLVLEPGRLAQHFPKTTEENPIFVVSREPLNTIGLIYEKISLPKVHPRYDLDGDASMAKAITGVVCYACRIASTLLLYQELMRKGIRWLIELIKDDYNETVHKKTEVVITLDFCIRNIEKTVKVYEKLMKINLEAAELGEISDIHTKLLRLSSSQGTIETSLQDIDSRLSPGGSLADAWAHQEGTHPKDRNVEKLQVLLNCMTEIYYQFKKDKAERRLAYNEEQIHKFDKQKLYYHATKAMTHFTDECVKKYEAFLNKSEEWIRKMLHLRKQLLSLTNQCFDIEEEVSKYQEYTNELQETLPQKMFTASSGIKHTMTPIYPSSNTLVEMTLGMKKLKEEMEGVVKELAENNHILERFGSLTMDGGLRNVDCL
In outline:
as §1

In test [4] the target is Rsk4 (h) (Homo sapiens, UniProt Q9UK32). The essentials:
as §1

Test [5] addresses T3, IRAK4 (h) (Homo sapiens, UniProt Q9NWZ3).
T3 construct: purchased Millipore
T3 sequence (Q9NWZ3 1-460): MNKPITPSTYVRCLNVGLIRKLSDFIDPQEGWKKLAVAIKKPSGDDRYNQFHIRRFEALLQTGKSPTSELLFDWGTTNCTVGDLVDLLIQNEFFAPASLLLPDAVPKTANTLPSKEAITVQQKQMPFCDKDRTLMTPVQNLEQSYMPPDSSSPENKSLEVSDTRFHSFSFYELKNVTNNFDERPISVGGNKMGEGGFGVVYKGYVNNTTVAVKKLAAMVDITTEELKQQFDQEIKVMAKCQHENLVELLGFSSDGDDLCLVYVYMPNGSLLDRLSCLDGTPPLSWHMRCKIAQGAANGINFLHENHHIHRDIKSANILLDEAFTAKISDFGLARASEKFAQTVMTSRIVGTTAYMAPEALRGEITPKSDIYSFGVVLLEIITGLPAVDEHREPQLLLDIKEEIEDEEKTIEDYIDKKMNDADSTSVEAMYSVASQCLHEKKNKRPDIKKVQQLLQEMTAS
In outline:
as §1

In test [6] the target is T4, PKCγ (h) (Homo sapiens, UniProt P05129).
T4 construct: purchased Millipore
In outline:
as §1

Test [7] has as its target T5, TAO2 (h) (Homo sapiens, UniProt Q9UL54).
T5 sequence (Q9UL54 1-1235): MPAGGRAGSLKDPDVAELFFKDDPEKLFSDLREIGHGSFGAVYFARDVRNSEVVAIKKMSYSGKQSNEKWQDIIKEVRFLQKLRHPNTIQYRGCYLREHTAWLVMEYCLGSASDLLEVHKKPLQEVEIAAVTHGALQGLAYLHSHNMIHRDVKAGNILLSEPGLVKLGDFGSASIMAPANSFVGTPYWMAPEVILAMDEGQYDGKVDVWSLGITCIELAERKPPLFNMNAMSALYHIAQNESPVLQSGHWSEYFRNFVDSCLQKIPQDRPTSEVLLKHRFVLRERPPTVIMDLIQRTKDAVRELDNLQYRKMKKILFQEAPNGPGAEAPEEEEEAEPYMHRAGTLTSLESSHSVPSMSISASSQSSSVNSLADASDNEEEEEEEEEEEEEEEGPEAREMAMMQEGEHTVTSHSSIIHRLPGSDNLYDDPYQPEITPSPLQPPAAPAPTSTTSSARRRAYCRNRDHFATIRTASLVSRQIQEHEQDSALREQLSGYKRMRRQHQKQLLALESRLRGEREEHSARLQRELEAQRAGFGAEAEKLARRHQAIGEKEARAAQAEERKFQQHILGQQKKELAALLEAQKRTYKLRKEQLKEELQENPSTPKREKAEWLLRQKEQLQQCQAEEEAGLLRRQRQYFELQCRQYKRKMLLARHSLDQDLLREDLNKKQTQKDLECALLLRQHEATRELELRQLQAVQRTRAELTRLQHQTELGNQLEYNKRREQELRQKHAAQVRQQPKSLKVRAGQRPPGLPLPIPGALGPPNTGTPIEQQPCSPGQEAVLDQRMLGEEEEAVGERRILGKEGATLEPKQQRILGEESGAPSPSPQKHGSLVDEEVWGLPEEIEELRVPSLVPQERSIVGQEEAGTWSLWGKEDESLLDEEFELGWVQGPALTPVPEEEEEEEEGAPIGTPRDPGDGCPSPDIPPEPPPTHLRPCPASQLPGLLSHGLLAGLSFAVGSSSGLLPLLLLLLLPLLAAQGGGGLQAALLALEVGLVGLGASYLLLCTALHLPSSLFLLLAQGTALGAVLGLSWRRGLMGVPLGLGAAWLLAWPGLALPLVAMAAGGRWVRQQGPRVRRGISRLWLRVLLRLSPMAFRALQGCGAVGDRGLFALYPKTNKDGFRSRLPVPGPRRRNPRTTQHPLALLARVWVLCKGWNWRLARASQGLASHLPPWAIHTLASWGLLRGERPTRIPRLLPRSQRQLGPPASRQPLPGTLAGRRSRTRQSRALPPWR
In outline:
as §1

T1 sequence (P50613 whole entry): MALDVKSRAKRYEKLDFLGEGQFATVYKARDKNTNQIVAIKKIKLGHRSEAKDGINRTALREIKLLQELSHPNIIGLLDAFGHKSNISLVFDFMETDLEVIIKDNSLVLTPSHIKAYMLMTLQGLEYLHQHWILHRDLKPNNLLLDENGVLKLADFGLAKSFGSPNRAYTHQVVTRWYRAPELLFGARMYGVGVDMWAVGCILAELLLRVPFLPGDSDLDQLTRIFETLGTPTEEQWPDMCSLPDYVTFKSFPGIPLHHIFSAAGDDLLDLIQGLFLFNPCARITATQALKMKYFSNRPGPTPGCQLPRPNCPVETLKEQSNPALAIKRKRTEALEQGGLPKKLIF
T1 sequence (P51946 whole entry partner): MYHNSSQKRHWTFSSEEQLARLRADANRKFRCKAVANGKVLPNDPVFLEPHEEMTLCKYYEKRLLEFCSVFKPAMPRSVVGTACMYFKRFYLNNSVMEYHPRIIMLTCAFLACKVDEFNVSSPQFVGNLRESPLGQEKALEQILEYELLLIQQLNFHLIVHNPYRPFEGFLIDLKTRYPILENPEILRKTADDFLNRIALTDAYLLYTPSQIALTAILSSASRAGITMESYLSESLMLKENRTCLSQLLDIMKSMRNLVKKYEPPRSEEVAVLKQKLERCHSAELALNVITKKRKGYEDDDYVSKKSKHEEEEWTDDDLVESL
T1 sequence (P51948 whole entry partner): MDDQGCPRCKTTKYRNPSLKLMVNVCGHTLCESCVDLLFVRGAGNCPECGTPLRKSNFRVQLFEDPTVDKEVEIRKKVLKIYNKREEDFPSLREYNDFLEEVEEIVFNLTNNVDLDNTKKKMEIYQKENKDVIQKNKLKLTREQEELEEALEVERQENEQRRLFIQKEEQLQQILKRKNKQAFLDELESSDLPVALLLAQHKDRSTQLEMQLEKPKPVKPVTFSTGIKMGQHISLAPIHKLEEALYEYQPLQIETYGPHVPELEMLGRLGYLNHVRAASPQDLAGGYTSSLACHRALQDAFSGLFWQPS
Sequence of Rsk4 (h) (Q9UK32 whole entry): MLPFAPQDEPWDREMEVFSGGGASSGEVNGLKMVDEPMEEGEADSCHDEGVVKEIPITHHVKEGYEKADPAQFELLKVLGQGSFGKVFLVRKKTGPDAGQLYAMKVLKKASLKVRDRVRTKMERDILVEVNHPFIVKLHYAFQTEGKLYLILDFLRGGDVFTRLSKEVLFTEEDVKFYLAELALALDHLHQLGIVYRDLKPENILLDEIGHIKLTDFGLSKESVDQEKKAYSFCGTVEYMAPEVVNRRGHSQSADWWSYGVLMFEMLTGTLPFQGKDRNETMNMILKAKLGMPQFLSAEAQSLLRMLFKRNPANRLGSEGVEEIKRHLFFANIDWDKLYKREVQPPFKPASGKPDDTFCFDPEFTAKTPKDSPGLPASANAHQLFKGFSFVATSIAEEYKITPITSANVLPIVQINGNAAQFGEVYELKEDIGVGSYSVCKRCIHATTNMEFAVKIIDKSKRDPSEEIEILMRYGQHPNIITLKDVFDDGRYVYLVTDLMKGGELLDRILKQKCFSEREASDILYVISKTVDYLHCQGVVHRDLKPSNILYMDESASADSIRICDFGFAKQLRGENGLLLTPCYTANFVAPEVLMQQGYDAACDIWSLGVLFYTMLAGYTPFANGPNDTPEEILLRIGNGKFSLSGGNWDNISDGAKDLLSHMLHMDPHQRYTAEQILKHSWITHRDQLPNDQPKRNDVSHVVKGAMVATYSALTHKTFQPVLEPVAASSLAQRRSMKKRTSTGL
Sequence of MELK (h) (Q14680 whole entry): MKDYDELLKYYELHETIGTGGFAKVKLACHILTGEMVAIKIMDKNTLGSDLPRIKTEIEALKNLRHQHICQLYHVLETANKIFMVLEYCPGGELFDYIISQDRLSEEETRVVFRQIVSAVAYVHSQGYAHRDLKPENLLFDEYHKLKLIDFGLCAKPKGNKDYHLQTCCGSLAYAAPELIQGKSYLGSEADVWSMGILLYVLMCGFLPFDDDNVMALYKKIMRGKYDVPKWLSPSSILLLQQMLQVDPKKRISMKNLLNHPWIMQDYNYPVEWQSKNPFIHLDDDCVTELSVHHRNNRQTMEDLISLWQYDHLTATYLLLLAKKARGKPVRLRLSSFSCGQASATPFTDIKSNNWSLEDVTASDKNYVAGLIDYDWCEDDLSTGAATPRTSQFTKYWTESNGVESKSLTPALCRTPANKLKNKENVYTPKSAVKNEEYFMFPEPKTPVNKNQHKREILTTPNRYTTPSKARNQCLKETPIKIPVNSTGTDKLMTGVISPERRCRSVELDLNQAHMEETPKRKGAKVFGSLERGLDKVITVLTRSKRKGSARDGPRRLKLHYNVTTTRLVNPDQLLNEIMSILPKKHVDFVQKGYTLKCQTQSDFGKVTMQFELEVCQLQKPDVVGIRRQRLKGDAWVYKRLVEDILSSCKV

Take KAFAKLAARLYRKALARQLGVAA [MMI-0400]: the “% activity” value stood at 47% in test [1]; 17% in test [2]; 39% in test [3]; 91% in test [4]; 59% in test [5]; 79% in test [6]. Moreover, in test [7], the “% activity” value turned out to be 74%.
Take “YARAAARQARAKALNRQLGVA (Mammalian) [MMI-0200]”: the “% activity” value in test [1] is listed as 67%; in test [2], 59%; in test [3], 98%; in test [4] it was 125%; in test [5] it was 110%; in test [6], 101%. In addition, the “% activity” value in test [7] came out at 93%.
Take “HRRIKAWLKKIKALARQLGVAA (Mammalian) [MMI-0500]”: the “% activity” value in test [1] worked out at 15%; in test [2], 0%; in test [3] it was 16%; in test [4], 29%; in test [5], 3%; in test [6] it was 6%. For the same sequence, in test [7], the “% activity” value was 15%.
For FAKLAARLYRKALARQLGVAA [MMI-0300], the “% activity” value came to 65% in test [1]; 16% in test [2]; 37% in test [3]; 90% in test [4]; 59% in test [5]; 89% in test [6]. The “% activity” value in test [7] is 70%.
